Results on 41 sequences are retold here after the nanobody polyreactivity screen of Harvey et al. (2022).

The data set is described as follows: yeast display, Sf9 membrane polyspecificity reagent, FACS + sequencing; frameworks hold sequencing errors. The method, boiled down: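 Synthetic nanobody libraries on Saccharomyces cerevisiae BJ5465 were galactose-induced for 36–48 hours, stained 1 hour at 4 °C with 10% biotinylated, detergent-solubilized Sf9 membrane reagent and enriched on streptavidin microbeads. FACS then separated cells into low and high (top ~1%) gates by anti-HA (expression) and streptavidin (reagent binding) fluorescence. Genes were colony-PCR amplified, MiSeq 2 × 250 sequenced and CDR-length filtered. A clone's polyreactivity label is that of its gate of origin.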
On to “QVQLVEAGGGLVQAGGSLRLSCAASGRTFLYYDMGRYRQAPGKERELVAVITLRGGRTYYADSVKGRFTISRDNAKNTVYLQMNILKPEDTAVYYCAKDYSRGYNYWGQGTQVTVSS”, for which the “polyreactivity (PSR sort gate)” value was “high polyreactivity”.

For “QVQLVESGGGLVQAGGSLRLSCAASGITFPANAMGWYRQSPGKERELVADISESDGSTYYADSVKGRFTISRDNAKHTVYLQMNRLKPEDTAVYYRAADGTYGTRSDYWGQGTQVTVSS”, the “polyreactivity (PSR sort gate)” value was “low polyreactivity”.

Consider “QVQLVESGGGLVQEGGSLRLSCAASGFIFGWYAMGWYRQAPGKERELVATISSSGGSTYYADSVKGRFTISRDNAKNTVYLQMNSLKPEDTAVYYCAARPRRYYSAQDMDYWGQGTQVTVSS”, for which the “polyreactivity (PSR sort gate)” value was “high polyreactivity”.

As for “QVQLVESGGGLVQAGGSLRLSCAASGFIIKYYAMGWYRQAPGKERELVAAISSGGRTYYADSVKGRFTISRDNAKNTVYLQMNSLKPEDTAVYYCAKTFRKSYDWGQGTQVTVSS”, the “polyreactivity (PSR sort gate)” value is “high polyreactivity”.

Turning to “QVQLVESGGGLVQAGGSLRLSCAASGIIFPGNAMGWYRQAPGKERELVAAISSGGNTKYADSVKGRFTISRDNAKNTGYLQMNSLKPEDTAVYYCAADGASRALYDYWGQGTQVTVSS”, the “polyreactivity (PSR sort gate)” value was “high polyreactivity”.

For “QVQLVESGGGLVQAGGSLRLSCAASGRIFAKYAMGWSRQAPGTERELVAAISWRGGRTYYADSVKGRFTISRDNAKNTVYLQMNSLKPEDTAVYYCNAVGSRAYVASAWTQMDYWGQGTQVTVSS”, the “polyreactivity (PSR sort gate)” value is reported as “high polyreactivity”.

As for “QVQLVESGGGLVQAGGSLRLSCAASGSIFYQNAMGWYRQAPGKEREFVAAITWIGGSTYYADSVKGRFTISRDNAKNSVYLQMNILKPEDTAVYYCAADSVDNIYYGFDYWGQGTQVTVSS”, the “polyreactivity (PSR sort gate)” value is “high polyreactivity”.

Turning to “QVQLVESGGGLVLAGGSLRLSCAASGSIFYVYAMGWYRQAPGKERELVASITWSGGRTYYADSVKGRFTISRDNAKNTVYLQMNSLKPEDTAVYYCNAVSFGARTTSYRYGSCGQGTQVTVSS”, the “polyreactivity (PSR sort gate)” value was “high polyreactivity”.

For the sequence “QVQLVESGGGLVQAGGSLRLSCAASGFTFDENAMGWYRQAPGINYSGASTYYADSVKGRFTISRDNAQNSVYLQMNSLKPEDTAVYYCAAEVVAQMNYWGQGTQVTVSS”, the “polyreactivity (PSR sort gate)” value is “low polyreactivity”.

Take “QVQLVESGGCLVQAGGSLRLSCAASGSTFHYNAMGWYRQAPGKERELVATISWSGGSTYYADSVKGRFTISRDNAKNTVYLQMNSLKPEDTAVYYCAARYSGYRGSFYGRHGGKYYYWGQGTQVTVSS”: the “polyreactivity (PSR sort gate)” value is given as “high polyreactivity”.

Take “QVQLVESGGGLVQAGGSLRLNCAASGGIFRGYAMVWYRQAPGKERELVATITYSGTSTYYADSVKGRFTISRDYAKNTVYLQMNSLKPEYTAVYYCNADWWFKYDYWGQGTQVTVSS”: the “polyreactivity (PSR sort gate)” value is “low polyreactivity”.

On to “QVQLVESGRGLVQAGGSLRISCAASGRTFRHNVMGWYRQAAGQERELVAAITWGDASTYYADSVKGRFTISRDNAKNTVYLQMNSLKPEDTAVYYCAASDYRRSYDYWGQGTQVTVSW”, for which the “polyreactivity (PSR sort gate)” value is listed as “low polyreactivity”.

On to “QVQLVESGGGLVQAGGSLRLSCAASGSIFRIYAMGWYRQAPGKERELVAAISFSTGSRTYYADSVKGRFTISRDNAKNTVYLQMNSLKPEDTAVYYCNAESYYDYNYWGQGNQVTVSS”, for which the “polyreactivity (PSR sort gate)” value is on record as “low polyreactivity”.

Regarding “QVQLVESGGGLVQAGGSLRLSCAASGYIFVRNAMGWYRQAPGKEREFVAAISGSGGSTYYADSVKGRFTISRDNAKNTVYFQMNSMKPEDTAVYYCAADYATVTWRGIAYDYWGQGTQVTVSS”, the “polyreactivity (PSR sort gate)” value is listed as “low polyreactivity”.

Turning to “QVQLVDSGGGLVQAGGSLRLSCAASGSTFFFNDLGWSRQAPGKESEFVAGISSSGGSTHYADSVKGRFTISRDKAKNTVYFQMNSLKPEDTAVYYCNTLRNWYYQFDFNYWGQGTQVTVSS”, the “polyreactivity (PSR sort gate)” value is listed as “low polyreactivity”.

“QVQLVESGGGLVQAGGSLRLSCAASGYTFRWYVMGWYRPAPGKERELVAAISQSGGDTYYADSVKGRFTISRDNAKNTVYLQMNSLKPEDTAVYYCAVGRVGRFYYWGQGTQVTVSS”: the “polyreactivity (PSR sort gate)” value is reported as “high polyreactivity”.

As to “QVQLVESAAGLVQAGGSLRLSCPASARILRYYAMGWYRQAPGKERELVAAISPRGGRTYYADSVKGRFTISRDNAKNTVYLQMNSLKPEDTAVYYCASPGYFTTPSGSYDYWGQGTQVTVSS”, the “polyreactivity (PSR sort gate)” value is given as “high polyreactivity”.

“QVQLVESGGGLVQAGGSLRLSCAASGFTFRQNAMGWYRQAPGKERELVAAISYSGGRTYYADSVKGRFTISRDNEMNTVYLQMNRLKPEDTAVYYCAVTYGIDYGYEYWGQGTQVTVSS”: the “polyreactivity (PSR sort gate)” value was “high polyreactivity”.

For “QVQLVESWGGLVQAGGSLRLSCAASGRIFRGYAMGWYRQAPGKERELVAVISYSGTRTYYADSVKGRFTISRDNAKNTVYLQMNSLKPEDTAVYYCNARANGFKDGYWGQGTQVTVSS”, the “polyreactivity (PSR sort gate)” value is recorded as “high polyreactivity”.

For “QVQLVESGGGLVQAGGSLRLSCAASGRILAPYAMGWYRQAPGKERELVAAINWSTGRTYYADSVKGRFTISRDNAKNTVYLQMNSLKPEDTAVYYCAALIVFDTLYDYGYWGQGPQVTVSS”, the “polyreactivity (PSR sort gate)” value was “low polyreactivity”.

With “QVQLVESGGRLVQAVGRLRLSCAASGFIFSRYAMRWYRPAPGKERELVAVISYSGGITYYADSVKGRFTISRDNAKNTVYLQMNSLKPEDTAVYYCAVGGTPRYSKYDYWGQGTQVTVSS”, the “polyreactivity (PSR sort gate)” value is recorded as “low polyreactivity”.

Regarding “QVHLVESGGGLVQAGGSLRLSCAASGSTFYPYSMGWYRQAPGKERELVAAISSGGSTSYADSVKGRFTISRDNAKNTVYLQMNSLKPDDTAVYYCAALYRIFSYDYWGQGTQVTVSS”, the “polyreactivity (PSR sort gate)” value is “low polyreactivity”.

Regarding “QVQLVESGGGLVQAGGSLRLSCAASGSTFVRNVMGWYRQAPGKERELVARISWSGTGTYYADSVKGRFTISRDNAKNTVYLQMNSLKPEDTAVYYCAARSTVYISSDYWGQGTQVTVSS”, the “polyreactivity (PSR sort gate)” value is on record as “low polyreactivity”.

In the case of “QVQLVESGGGLVQAGGSLRLSCAASGSTVYAYAMGWYRQAPGKERELVAAIDSGGSTYYADSVKGRFTISRDNAKNTVNLQMNSLKPEDTAVYYCAVRHRYTRAYWGRDYWGQGTQVTVSS”, the “polyreactivity (PSR sort gate)” value is reported as “low polyreactivity”.

Take “QVQLVESGGGLVQAGGSLRLSCAASGIIFWYNAMGWYRQAPGKERELVASISTGGRTYYADSVKGRFTISRDNAKYTVYLQMNSLKPEDTAVYYCAAASRVGFLYYYWGQGTQVTVSS”: the “polyreactivity (PSR sort gate)” value is reported as “low polyreactivity”.

On to “QVQLVESGGGLVQAGGSLRLSCAASGRTFAIYVMGWYRQAPGKERELVAAISRGGSTYYADSVKGRFTISRDNAKNTVYLQMNSLKPEDTAVYYFAAGTGTTSRYYYWGQGTQVTVSS”, for which the “polyreactivity (PSR sort gate)” value is given as “high polyreactivity”.

With “QVQLVESGGGLVQAGGSLRLSCAASGLIFAINAMGWYRQAPGKEREMVAAIRWSGDSTYADSVKGRFTISRDNAKNTVYLQMNSLKREDTAVYYCAADDLLDYDYWGQGTQVTVSS”, the “polyreactivity (PSR sort gate)” value is reported as “low polyreactivity”.

On to “QVQLVESGGGLVQAGGSLRLSCAASGSISNYYGMGWYRQAPGKERELVAAITWGGGRTNYADSVKGRFTISRDNAKNTVYLQMNSLKPEDTAVYYCAKVSVTHRYGAGGDYWGQGTQVTVSS”, for which the “polyreactivity (PSR sort gate)” value is “low polyreactivity”.

Turning to “QVQLVESGGGLVQAGGSLRLSCAASGFTFEKYAMGWYRQAPGKERELVAAISQSAGSTYADSVKGRFTISRDNAKNTVYLQMNSLKPEDTAVYYFAARYRYPYYARYGYWGQGTQVTVSS”, the “polyreactivity (PSR sort gate)” value is given as “high polyreactivity”.

For the sequence “QVQLVESGGGLVQAGASLRLSCAASGNILRGYAMRWYRQAPGKERELVAAINRGGGSTYYADSVKVRFTISRDNAKNTVYLQMNSLKPEDTAVYYCAARYPHRGYTFDYLGQGTQVTVSS”, the “polyreactivity (PSR sort gate)” value is recorded as “low polyreactivity”.

For “QVQLVESGGGLVQAGGSLRLICAASRGIFGQYVMGWYRQAPGKERELVAPISSGGNTYADSVKGRFTISRDNAKNTVYLHMNSLKPEDTAVYYCAAPLTGIVEYDYWGQGTQVTVSS”, the “polyreactivity (PSR sort gate)” value is recorded as “low polyreactivity”.

For “QVQLVESGGGLVQAGGSLRLSCAASGFIFYRNVMGWYRQAPGKERELVAAISGSGGRTYYADSVKGRFTISRDNAKNTVYLQMNSLKPEDTAVYYCAADASLEGDYWGQGTQVTVSS”, the “polyreactivity (PSR sort gate)” value is “high polyreactivity”.

Take “QVQLVESGGGLVQAGGSLLLSCAASGRTSAYYAMGWYRQAPGKERELDAGITRGGRTNDADSVKWRFTISRDNAKYTDYFQMNSLNPEDTAVYYCAAKYGFYWNSRTSGYWGQVTQVTVSS”: the “polyreactivity (PSR sort gate)” value was “high polyreactivity”.

For the sequence “QVQLVESGGGLVQAGGSLRLSCAASGFIFYYYAMGWYRQAPGKERELVAAITGSGGNTYYADSVKGRFTISRDYAKNTVYFQMNSLKPEDTAFYYCNTGYDWGGDYWGQGTQVTVSS”, the “polyreactivity (PSR sort gate)” value is listed as “high polyreactivity”.

As for “QDQLVESGGGLVQAGGSLRLSCAASGLTFSLYAMGWYRQAPGKERELVAAISWTGGSTYYADSVKGRFTISRDTPKNTVYLQMNSLKPEDTAVYYCNARYTLFARYGYDYWGQGTQVTVSS”, the “polyreactivity (PSR sort gate)” value is “low polyreactivity”.

With “QFQLVESGRGLVQAGGSLRLSCAASGRTFSAYAIGWNSQAPVKQRELVAAITRGGSTNYADSVKGRFTISRDNAMNTLYLQMNRLKPEDTAVYYCAARRSSRKDFGYWGQGTQVTVSS”, the “polyreactivity (PSR sort gate)” value is “high polyreactivity”.

Regarding “QVQLVESGGGLVQAGGSLRLSCAASGSIFYHNAMGWYRQAPGKERELVAAISSSGGNTYYADSVKGRFTISRDNAKNTVYLQLNSLKPEDTAVYYCNKGFSYRSGRGYWGQGTQVTVSS”, the “polyreactivity (PSR sort gate)” value is on record as “high polyreactivity”.

Regarding “QVQLVESGGGLVQAGGSLRLSCAASGSTFVRNDKGWYRQAPGTEREFVAAINGDGRTYYADSVKGRFTISRDNEKNTVYLQMNSLKPEDTAVYYCAADWKSSRSYSYEMDYWGQGTQVTVSS”, the “polyreactivity (PSR sort gate)” value was “low polyreactivity”.

Regarding “QVQLVESGGGLVQAGGSLRLSCAASGNIFDIYAMGWYRPAPGTERELVAAISSGGSTYYADSVKGRFTISRDNAKNTVYLQMNSLKPEDTAVYYCAESRVGYYRYEYWGQGTQVTVSS”, the “polyreactivity (PSR sort gate)” value is recorded as “low polyreactivity”.

In the case of “QVQLEESGGGLVQAGGSLRLSCAASGSIFIYYAMGWYRQAPGKERELVAGINFNGGSTYYADSVKVRFTISRDNAKNTVYLQMNSLKPEDTAVYYCAADELWWTYWDFVTNWYQRDYWGQGTQVTVSS”, the “polyreactivity (PSR sort gate)” value is given as “low polyreactivity”.

As to “QVQLVESGGGLVQAGGSLRLSCAASGITFDWYTLGWYSQAPGKERELVAAISRNGGSTYYADSVKGRFTISRDNAKNTVYLQMNSLKPEDTAVYYCAAPLTYLYYGYDYWGQGTQVTVSS”, the “polyreactivity (PSR sort gate)” value is on record as “high polyreactivity”.
